{"source": "paper PMC4772501", "about": "(The Journal of Cell Biology, 2016)", "binders": {"B1": {"name": "(His)6Spr3 (natural protein)", "chain": "MKSKGSRLSTDCPVEFPKIVSGFAEEVKIRRQSSQGQYAVDSHPPKSPELKHRRQRSSSFVNGKCRNRDLPLLDNKKAQEINTNSHGQDIGIKNLPRQRELLNAKNGIDFTLMVAGQSGLGKTTFINSLFSTSLIDDDIKENKPIIRYKSIVEGDGTHLNFNVIDTPGFGNNMDNAFTWRTMVNYIDEEIRSYIFQEEQPDRTKMVDNRVHCCLYFLRPSNKGIDTLDVVTMKKLAKRVNLIPVIAKSDLLTKEELKNFKTQVREIIRVQDIPVCFFFGDEVLNATQDIFQKYPFSIIASNEYIFNEKGEKVKGRQYKWGAVDIENEKYCDFKILQKTIFDWNLIDLVESTEDYYEKCRSEMLRTRLLKARDCLTTKSVDITEEQRKFLEEEMNFDEIEENKLKNYKCYEIINKTVMDKVATEWDPEFITRQLEAKKKFNELSNREISKFRDWKKSLFMEQENFNQEIEQLNHKLENLQLECQDLEYKLLIGKSSNSHSTDSATLVNVHIKR"}, "B2": {"name": "Cdc10 (natural protein)", "chain": "MDPLSSVQPASYVGFDTITNQIEHRLLKKGFQFNIMVVGQSGLGKSTLINTLFASHLIDSATGDDISALPVTKTTEMKISTHTLVEDRVRLNINVIDTPGFGDFIDNSKAWEPIVKYIKEQHSQYLRKELTAQRERFITDTRVHAILYFLQPNGKELSRLDVEALKRLTEIANVIPVIGKSDTLTLDERTEFRELIQNEFEKYNFKIYPYDSEELTDEELELNRSVRSIIPFAVVGSENEIEINGETFRGRKTRWSAINVEDINQCDFVYLREFLIRTHLQDLIETTSYIHYEGFRARQLIALKENANSRSSAHMSSNAIQR"}, "B3": {"name": "Spr28 (natural protein)", "chain": "MFPMKDHSALEQHTLSRDELRRRKGYKKGLQLSILLLGEKGSGKSTFLNNLCGQDISLSDGDYDDDDDKVTNNVTPENGNAIEDIDPGYKTAHLSPGLKLVTRRVYLNDELGVPITLDIILFPGCGDNVDNSQSSVVIKNYLDQQFANVLKEEVRIKRNTKETDGRPHVCLYFLKSTPRGVKKFDIELMKTICDKVNLIPIIPKADGLTETELNLHKDIVRQEISQNNIRVFDFKSDTLGETLALYDMDIDSSSAKSKYDNDTKIKEISPFAIVCSKTFNKNSENRVEHIRTYEWGSLVVEDQNTSDFIYLKAILLGSHLQELKDVTNNVLYENYRAKVLTEKKNNYDIPNYSYIDETSRGSVSNVSTRRNSASRTLGNPDTNDENAYQIHKEIDEKNRIIEDYQRKIDLLEKMLAAPHQNKV"}}, "key": {"Cdc3 [1]": {"molecular_target": "T1, Cdc3 (S. cerevisiae, UniProt P32457 1-520)", "T1 sequence": "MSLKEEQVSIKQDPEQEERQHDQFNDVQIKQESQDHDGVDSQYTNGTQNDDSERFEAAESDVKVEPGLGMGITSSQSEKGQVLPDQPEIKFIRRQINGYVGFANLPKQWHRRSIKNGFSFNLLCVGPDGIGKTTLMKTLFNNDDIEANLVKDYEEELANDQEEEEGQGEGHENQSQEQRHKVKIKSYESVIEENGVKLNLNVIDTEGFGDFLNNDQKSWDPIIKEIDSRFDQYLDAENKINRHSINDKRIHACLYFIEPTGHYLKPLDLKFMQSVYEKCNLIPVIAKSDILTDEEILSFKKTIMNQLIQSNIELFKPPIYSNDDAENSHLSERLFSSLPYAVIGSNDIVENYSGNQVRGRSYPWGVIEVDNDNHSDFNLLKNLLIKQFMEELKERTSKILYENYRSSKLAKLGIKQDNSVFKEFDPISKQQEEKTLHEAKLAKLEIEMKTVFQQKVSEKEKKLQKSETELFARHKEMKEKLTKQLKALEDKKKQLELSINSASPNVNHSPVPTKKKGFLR", "assay": "pull-down"}, "(His)6Spr3 [2]": {"molecular_target": "B1", "assay": "pull-down"}, "Cdc3 [3]": {"molecular_target": "T1, Cdc3", "assay": "negative-stain EM, single-particle class averages"}, "[4]": {"molecular_target": "the molecule itself", "assay": "negative-stain EM, single-particle class averages"}, "(His)6Spr3 [5]": {"molecular_target": "B1", "assay": "negative-stain EM, single-particle class averages"}}}
{"binder": "B1", "values": [{"measurement": "binding result", "setting": "Cdc3 [1]", "value": "binds"}]}
{"binder": "B2", "values": [{"measurement": "binding result", "setting": "(His)6Spr3 [2]", "value": "binds"}, {"measurement": "binding result", "setting": "Cdc3 [3]", "value": "binds"}, {"measurement": "binding result", "setting": "[4]", "value": "binds"}]}
{"binder": "B3", "values": [{"measurement": "binding result", "setting": "(His)6Spr3 [5]", "value": "binds"}]}
